Where a chain is given by its changes, count along the chain named.
B1: Antibody C (IgG1KO) (antibody, V domains shown)
VH: QVQLVQSGAEVKKPGASVKVSCTASGFNIKDYYVHWVKQAPGQGLEWMGRIDPEDGDSKYAPKFQGKATMTADTSTSTVYMELSSLRSEDTAVYYCTTSYYVGTYGYWGQGTLVTVSS
VL: DIQMTQSPSSLSASVGDRVTITCSASSSVSYMLWFQQKPGKAPKLLIYSTSNLASGVPSRFSGSGSGTDFTLTISSLQPEDFATYYCQQRTFYPYTFGGGTKVEIKR
notes: also called 2H11-159-94
B2: 2H11 (murine anti-human CD40 antibody) (antibody, V domains shown)
VH: EVQLQQSGAELVRPGASVKLSCTASGFNIKDYYVHWVKQRPEKGLEWIGRIDPEDGDSKYAPKFQGKATMTADTSSNTAYLHLSSLTSEDTAVYYCTTSYYVGTYGYWGQGTTLTVSS
VL: QIVLTQSPAIMSASPGEKVTITCSASSSVSYMLWFQQKPGTSPKLWIYSTSNLASGVPARFGGSGSGTSYSLTISRMEAEDAATYYCQQRTFYPYTFGGGTKLEIK
notes: Mouse monoclonal antibody
B3: Antibody A (IgG1KO) (antibody, V domains shown)
VH: EVQLVESGGGLVKPGGSLRLSCAASGFTFSDYGMHWVRQAPGKGLEWVAYISSGNRIIYYADTVKGRFTISRDNAKNSLYLQMNSLRAEDTALYYCARQDGYRYAMDYWAQGTLVTVSS
VL: DIVMTQSPDSLAVSLGERATMSCKSSQSLLNSGNQKNYLTWHQQKPGQPPKLLIYWTSTRESGVPDRFSGSGSGTDFTLTISSLQAEDVAVYYCQNDYTYPLTFGGGTKVEIKR
notes: also called 20E2-12
B4: Antibody B (IgG1KO) (antibody, V domains shown)
VH: B3 VH with L93V, A110G
VL: B3 VL with R18K, A19V, M21I, S22N
B5: 4D11 (Kirin/Astellas) anti-CD40 antibody (antibody, V domains shown)
VH: QLQLQESGPGLLKPSETLSLTCTVSGGSISSPGYYGGWIRQPPGKGLEWIGSIYKSGSTYHNPSLKSRVTISVDTSKNQFSLKLSSVTAADTAVYYCTRPVVRYFGWFDPWGQGTLVTVSS
VL: AIQLTQSPSSLSASVGDRVTITCRASQGISSALAWYQQKPGKAPKLLIYDASNLESGVPSRFSGSGSGTDFTLTISSLQPEDFATYYCQQFNSYPTFGQGTKVEIK

How the values were obtained:
[1] = biological target: T1, cynomolgus monkey CD40 on cells (B cells, platelets) (cynomolgus monkey, UniProt G7PG38 21-278); assay: EC50 ratio human/cyno; ratio > 1 means increased binding to Cyno compared to Human
T1 construct: whole, on cells

[2] = biological target: T2, human CD40 on cells (CD40-transfected HEK293 cells, Ramos cells, human B cells, human platelets) (human, UniProt P25942 21-277); assay: cell-based or functional assay
T2 sequence (P25942 21-277): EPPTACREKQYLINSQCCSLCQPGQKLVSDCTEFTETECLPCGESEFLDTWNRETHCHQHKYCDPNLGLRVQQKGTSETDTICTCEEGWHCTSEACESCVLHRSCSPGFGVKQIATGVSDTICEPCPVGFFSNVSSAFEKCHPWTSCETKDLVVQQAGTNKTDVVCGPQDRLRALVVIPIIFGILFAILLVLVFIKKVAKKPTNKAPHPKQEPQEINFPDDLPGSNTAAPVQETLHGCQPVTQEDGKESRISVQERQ

human CD40-Fc protein = biological target: T3, human CD40-Fc protein (human, UniProt P25942 21-193); assay: ForteBio Octet, human CD40-Fc, +/- human serum
T3 construct: also called recombinant CD40 protein; not shown: Fc part
T3 sequence (P25942 21-193 limits assumed): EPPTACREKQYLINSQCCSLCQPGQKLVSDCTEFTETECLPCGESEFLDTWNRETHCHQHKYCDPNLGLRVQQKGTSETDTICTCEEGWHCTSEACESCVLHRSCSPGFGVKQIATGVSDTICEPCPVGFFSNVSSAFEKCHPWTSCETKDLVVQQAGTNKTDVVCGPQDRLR
Description: Due to antibody and CD40-Fc bivalency avidity effects prevent Kds below 100 pM from being determined accurately. In addition, the binding to CD40-Fc was analyzed in the absence and presence of 50% human serum and no significant effect of serum on binding was observed (data not shown)

[3] = biological target: T2, human CD40 on cells (CD40-transfected …); assay: flow cytometry (MFI) on CD40-transfected HEK cells
Description: (§1) The specific binding of humanized antibodies to cellular CD40 was analyzed by flow cytometry using human CD40-transfected HEK293 cells. Concentration-dependent binding of Antibody A, Antibody B, and Antibody C was observed. […] No binding was detected on CD40 negative cells such as non-transfected HEK293 cells or the T cell line HSB-2 thus confirming selective binding to CD40 (data not shown).

[4] = biological target: T2, human CD40 on cells (CD40-transfected …); assay: flow cytometry, human CD40-transfected HEK293 cells
Description: as §1

[5] = biological target: T2, human CD40 on cells (CD40-transfected …); assay: cell binding, flow cytometry (cell type not given)
[6] = biological target: T2, human CD40 on cells (CD40-transfected …); assay: flow cytometry (mean fluorescence intensity), FITC-labeled antibody on human platelets
[7] = biological target: T2, human CD40 on cells (CD40-transfected …); assay: flow cytometry, directly labeled antibody, B cells in human whole blood (n = 6); range in brackets
[8] = biological target: T2, human CD40 on cells (CD40-transfected …); assay: flow cytometry (MFI) on human CD40-transfected HEK-293 cells
Description: as §1

[9] = biological target: T1, cynomolgus monkey CD40 on cells (B …); assay: flow cytometry, directly labeled antibody, platelets in cynomolgus whole blood (n = 5); range in brackets
[10] = biological target: T2, human CD40 on cells (CD40-transfected …); assay: flow cytometry, directly labeled antibody, platelets in human whole blood (n = 5); range in brackets
[11] = biological target: T1, cynomolgus monkey CD40 on cells (B …); assay: flow cytometry, directly labeled antibody, B cells in cynomolgus whole blood (n = 5); range in brackets
[12] = biological target: T2, human CD40 on cells (CD40-transfected …); assay: cell-based or functional assay; remark: listed apart in the source

Row | Binder | Species cross-react.:Hu/Cyno Binding (EC50 ratios) [1] [ratio] | B cell proliferation:Agonism (SI*) [2] | Kd (human CD40-Fc protein) [nM] | EC50 (read off the curve) [3] [nM] | EC50 [4] [nM] | EC50 [5] [nM] | binding result [6] | EC50 [7] [nM] | EC50 [8] [nM] | EC50 [9] [nM] | EC50 [10] [nM] | EC50 [11] [nM] | B cell proliferation assay, average IC50 [12] [nM]
1 | B1 | 1 | < 2 SI (Stimulation Index) | < 0.1 | ~0.8 | ~1 | 1.7 | – | – | – | – | – | – | –
2 | B2 | – | – | – | – | – | – | binds | – | – | – | – | – | –
3 | B3 | 3 | < 2 SI (Stimulation Index) | < 0.1 | ~1 | ~1 | 1.2 | – | – | – | – | – | – | –
4 | B4 | 2 | < 2 SI (Stimulation Index) | < 0.1 | ~2 | ~1 | 1.5 | – | 1.8 | 1 | 3.9 | 4.6 | 2.1 | –
5 | B5 | – | < 2 SI (Stimulation Index) | < 0.1 | – | ~1 | 0.9 | – | – | – | – | – | – | ~0.02
